Measurements published in paper PMC4969574 (The EMBO Journal, 2016).
Values joined by “and” are separate entries in the source; they are usually repeats but may differ in a detail not shown here. Equal entries are not always repeated.

T1: TssA1 fused to the adenylate cyclase T25 or T18 subunit (P. aeruginosa, UniProt Q9I750 1-344)
T1 sequence: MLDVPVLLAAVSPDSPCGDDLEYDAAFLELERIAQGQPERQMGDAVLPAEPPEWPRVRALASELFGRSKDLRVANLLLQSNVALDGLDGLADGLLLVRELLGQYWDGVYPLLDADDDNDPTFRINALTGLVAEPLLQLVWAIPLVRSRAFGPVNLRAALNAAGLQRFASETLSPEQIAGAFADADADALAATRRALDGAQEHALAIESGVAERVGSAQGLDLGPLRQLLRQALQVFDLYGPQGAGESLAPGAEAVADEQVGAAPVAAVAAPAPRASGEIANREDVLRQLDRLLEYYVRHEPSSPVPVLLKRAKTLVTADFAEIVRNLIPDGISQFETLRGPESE

B1: TssK1 fused to the adenylate cyclase T25 or T18 subunit (natural protein)
chain: MSWNNRVVWSEGMFLRPQHFQQHDRYLETLVDGRCRSLLAGGWGFSELKLDDALLTQGKLAIVSARGVLPDGTPFNIPADDPAPAPLNVEESLRDGIVYLGLPLKRVGTRDTVEEGEALGGARYVSQVQEVRDDNAAFESRAPVALGSQAFRLLTERDGLGEYAAVGVARVREKRADQALSLDEDYLPPVLDIAAAPPLASFAKELLGLLHQRGEALAGRVVASSAGGASEIADFLLLQLVNRAEALTGHLSRVRPLHPQELYRELVALAGEFCTFTASQRRPEEYPVYNHDDLAASFAPVMLALRQALATVIDAKAIAIPIVEKAYGVHVAMLSDRSLIDNASFVLVVRADVPGESLRGHFPQQAKVGSVEHIRDLVNLQLPGIGLLPMPVAPRQIPYHAGSTYFELDRGSAHWKQLTHSGGFAFHIAGQFPGLNLAFWAIRG
B2: His6-TssA1 (natural protein)
chain: T1 sequence

What was measured:
[1] = molecular target: T1, TssA1 fused to the adenylate cyclase …; experiment: two-hybrid; bacterial two-hybrid (BTH), T25 and T18 adenylate cyclase fusions in E. coli DHM1; β-galactosidase activity in Miller units and X-gal LB agar plates; conditions: partners not purified
[2] = molecular target: the molecule itself; experiment: AUC; sedimentation velocity of His6-TssA1 at 0.8, 0.56 and 0.32 mg/ml, 20,000 and 30,000 rpm, 20 °C, 25 mM Tris-HCl pH 7.5, 200 mM NaCl; c(s) by SEDFIT

Binder | fold above control (β‐galactosidase activity) [1] [fold] | stoichiometry N [2]
B1 | ~20 | –
B2 | – | 12 and 24
